Square brackets hold non-standard residues; d marks the D form. Ends that are not written are not given here. Dip = N[C@H](C(=O)O)C(c1ccccc1)c1ccccc1; Orn = NCCC[C@H](N)C(=O)O; Aib = CC(C)(N)C(=O)O
What follows are molecules tested against human IR (HIR) (Homo sapiens, UniProt P06213) (assay: Human IR affinity (Kd)). Details: Kd value expressed relative to that of human insulin in the same assay.
Format: binding

Molecule | Kd (HIR) rel. to HI [%]
SLEHEWAQIQCEVWGRGCPSEPFYGWFLAQLG [compound 799] | 4
Ac-SLEEEWAQIQCEVWGRGCPK(ε-carboxyfluorescein)ESFYGWFERQLG [compound 871] | 4
Ac-SLEEEW[Aib]QIQCEVWGRGCPSESFYDWFERQL (cysteine pairing not given here) [compound 875] | 12
Ac-SLEEEWAQIQCEVWG[Orn]GCPSESFYGWFERQLG (cysteine pairing not given here) [compound 805] | 24
Ac-SLE-Aib-EW-Aib-QIQCEVWGRPCPSEP-Dip-YGWFHEQLGPP [compound 874] | 8
Ac-SLEEEWAQIQCEVWGRGC-pox-FYGWFERQLG [compound 802] | 6
SLEHEWAQIQCEVWGRGCPSEPFYGWFERQLG [compound 800] | 07
Ac-SLEHEW[Aib]QIQCEVWGRPCPSEP[Dip]YGWFHEQLGPP (cysteine pairing not given here) [compound 872] | 6
Ac-SLE-Aib-EW-Aib-QIQCEVWGRGC-pox-FYGWFE-Aib-QLG [compound 806] | 3

The molecules below were run against human insulin receptor isoform with exon 11 (human) (UniProt P06213) (assay: receptor binding, standard methods (FIG. 2)). Details: not given.

Molecule | relative affinity
Ac-SLEEEWAQIQCEVWGRGCPSESFYDWFERQLG (cysteine pairing not given here) [S671] | 98

The molecules below were run against rat insulin receptor isoform with exon 11 (rat) (UniProt P15127) (assay: receptor binding, standard methods (FIG. 2)). Details: not given.
Chain of rat insulin receptor isoform with exon 11 (rat) (P15127 27-1383, stated change not applied): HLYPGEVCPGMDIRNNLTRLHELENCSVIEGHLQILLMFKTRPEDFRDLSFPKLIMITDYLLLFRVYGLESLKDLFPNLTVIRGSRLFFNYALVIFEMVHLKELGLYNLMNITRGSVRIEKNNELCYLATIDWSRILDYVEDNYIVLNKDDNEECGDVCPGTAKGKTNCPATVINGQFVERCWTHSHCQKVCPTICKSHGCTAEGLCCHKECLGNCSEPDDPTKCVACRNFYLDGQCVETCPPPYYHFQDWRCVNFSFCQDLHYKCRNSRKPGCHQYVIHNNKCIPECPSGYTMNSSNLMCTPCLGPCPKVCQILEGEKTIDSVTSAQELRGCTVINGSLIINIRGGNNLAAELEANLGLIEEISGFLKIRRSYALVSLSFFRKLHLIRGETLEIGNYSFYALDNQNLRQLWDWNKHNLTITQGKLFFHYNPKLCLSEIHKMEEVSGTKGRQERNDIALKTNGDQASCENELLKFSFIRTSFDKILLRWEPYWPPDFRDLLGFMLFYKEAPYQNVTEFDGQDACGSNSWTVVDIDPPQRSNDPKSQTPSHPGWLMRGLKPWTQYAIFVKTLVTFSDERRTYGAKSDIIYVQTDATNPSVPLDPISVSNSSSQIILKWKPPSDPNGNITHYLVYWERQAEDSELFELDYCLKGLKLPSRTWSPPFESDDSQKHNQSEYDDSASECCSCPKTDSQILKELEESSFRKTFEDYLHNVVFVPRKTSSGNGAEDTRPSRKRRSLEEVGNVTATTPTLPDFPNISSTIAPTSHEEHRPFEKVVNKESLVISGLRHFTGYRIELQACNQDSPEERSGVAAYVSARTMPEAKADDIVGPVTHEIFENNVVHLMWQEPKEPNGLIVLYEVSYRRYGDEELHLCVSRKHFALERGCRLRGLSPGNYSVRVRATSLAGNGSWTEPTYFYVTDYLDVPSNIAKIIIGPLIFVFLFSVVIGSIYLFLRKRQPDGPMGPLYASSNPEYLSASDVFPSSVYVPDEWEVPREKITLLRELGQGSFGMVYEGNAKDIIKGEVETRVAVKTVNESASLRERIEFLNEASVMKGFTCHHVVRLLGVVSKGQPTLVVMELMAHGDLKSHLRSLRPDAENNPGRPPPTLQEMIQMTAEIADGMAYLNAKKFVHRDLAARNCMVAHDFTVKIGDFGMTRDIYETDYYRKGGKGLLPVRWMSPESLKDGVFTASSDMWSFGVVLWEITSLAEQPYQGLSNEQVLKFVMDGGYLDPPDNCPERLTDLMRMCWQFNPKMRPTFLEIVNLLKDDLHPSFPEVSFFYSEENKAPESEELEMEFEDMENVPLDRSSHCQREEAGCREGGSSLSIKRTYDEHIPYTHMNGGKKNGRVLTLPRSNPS

Molecule | relative affinity
Ac-SLEEEWAQIQCEVWGRGCPSESFYDWFERQLG (cysteine pairing not given here) [S671] | 65

Each molecule was assayed against T1, rat insulin receptor isoform without exon 11 (rat, UniProt P15127-2 27-1371, limits assumed) (assay: receptor binding, standard methods (FIG. 2)). Details: not given.
T1 construct: also called RIR-11; RIR - 11
Description: (§1) A number of IRBPs (S519; S557; S597; S636; S667; S733; S671; S660; S696; S574; S700; S626; and S726), some of which described in the prior patent documents, were applied to A and B isoforms (−11 and +11 isoforms) of the human, rat, and pig insulin receptors (HIR, RIR, and PIR) using standard methods.

T1 sequence (P15127 other isoform, or with tags, fused parts or gaps limits assumed): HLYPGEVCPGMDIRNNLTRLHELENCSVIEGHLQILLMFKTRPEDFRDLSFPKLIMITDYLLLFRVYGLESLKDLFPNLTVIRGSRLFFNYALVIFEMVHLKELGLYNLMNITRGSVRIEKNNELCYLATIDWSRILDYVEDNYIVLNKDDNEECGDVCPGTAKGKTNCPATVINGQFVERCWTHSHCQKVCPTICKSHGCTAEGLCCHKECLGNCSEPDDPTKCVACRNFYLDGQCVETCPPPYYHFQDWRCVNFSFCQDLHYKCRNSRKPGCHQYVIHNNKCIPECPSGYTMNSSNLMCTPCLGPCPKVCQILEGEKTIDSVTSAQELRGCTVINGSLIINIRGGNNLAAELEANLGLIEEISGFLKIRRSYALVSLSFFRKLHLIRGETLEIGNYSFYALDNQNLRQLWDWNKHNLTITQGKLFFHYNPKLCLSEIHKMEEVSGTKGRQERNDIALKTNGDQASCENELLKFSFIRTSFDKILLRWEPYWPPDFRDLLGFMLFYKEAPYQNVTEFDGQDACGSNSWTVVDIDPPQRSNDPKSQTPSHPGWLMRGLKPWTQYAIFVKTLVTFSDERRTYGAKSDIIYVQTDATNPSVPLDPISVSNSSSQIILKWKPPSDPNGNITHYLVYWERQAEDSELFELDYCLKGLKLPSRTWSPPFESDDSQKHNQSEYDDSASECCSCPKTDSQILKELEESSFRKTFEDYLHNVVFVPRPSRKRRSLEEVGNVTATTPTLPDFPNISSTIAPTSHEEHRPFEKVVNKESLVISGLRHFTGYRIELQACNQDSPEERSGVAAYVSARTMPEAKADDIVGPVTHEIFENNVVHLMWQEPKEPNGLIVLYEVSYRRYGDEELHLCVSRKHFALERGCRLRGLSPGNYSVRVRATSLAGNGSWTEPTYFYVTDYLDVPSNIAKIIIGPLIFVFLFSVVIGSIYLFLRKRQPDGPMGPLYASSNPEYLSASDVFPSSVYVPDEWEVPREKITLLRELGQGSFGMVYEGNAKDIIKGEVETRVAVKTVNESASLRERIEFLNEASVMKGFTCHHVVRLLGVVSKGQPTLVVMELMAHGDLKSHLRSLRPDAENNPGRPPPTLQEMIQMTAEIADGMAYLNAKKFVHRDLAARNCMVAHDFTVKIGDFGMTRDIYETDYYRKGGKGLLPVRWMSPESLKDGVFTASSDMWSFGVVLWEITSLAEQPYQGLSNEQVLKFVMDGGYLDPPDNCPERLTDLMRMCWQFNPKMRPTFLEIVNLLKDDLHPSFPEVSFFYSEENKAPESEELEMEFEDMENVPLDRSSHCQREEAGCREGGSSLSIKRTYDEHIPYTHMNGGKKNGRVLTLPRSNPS

Molecule | relative affinity
Ac-SLEEEWAQIQCEVWGRGCPSESFYDWFERQLG (cysteine pairing not given here) [S671] | 39

What follows are molecules tested against T2, human insulin receptor isoform without exon 11 (human, UniProt P06213-2 28-1370, limits assumed) (assay: receptor binding, standard methods (FIG. 2)). Details: not given.
T2 construct: also called HIR-11; HIR - 11
Description: as §1

Molecule | relative affinity
Ac-SLEEEWAQIQCEVWGRGCPSESFYDWFERQLG (cysteine pairing not given here) [S671] | 86

The molecules below were run against T3, pig insulin receptor isoform without exon 11 (pig, UniProt F1SCK8 28-746; F1SCK8 751-1370) (assay: receptor binding, standard methods (FIG. 2)). Details: not given.
T3 construct: also called PIR-11; PIR - 11
Description: as §1

Molecule | relative affinity
Ac-SLEEEWAQIQCEVWGRGCPSESFYDWFERQLG (cysteine pairing not given here) [S671] | 23

These molecules were tested against insulin receptor on mouse adipocytes (mouse, UniProt P15208 28-1372) (assay: cell-based or functional assay). Details: not given.
Chain of insulin receptor on mouse adipocytes (P15208 28-1372): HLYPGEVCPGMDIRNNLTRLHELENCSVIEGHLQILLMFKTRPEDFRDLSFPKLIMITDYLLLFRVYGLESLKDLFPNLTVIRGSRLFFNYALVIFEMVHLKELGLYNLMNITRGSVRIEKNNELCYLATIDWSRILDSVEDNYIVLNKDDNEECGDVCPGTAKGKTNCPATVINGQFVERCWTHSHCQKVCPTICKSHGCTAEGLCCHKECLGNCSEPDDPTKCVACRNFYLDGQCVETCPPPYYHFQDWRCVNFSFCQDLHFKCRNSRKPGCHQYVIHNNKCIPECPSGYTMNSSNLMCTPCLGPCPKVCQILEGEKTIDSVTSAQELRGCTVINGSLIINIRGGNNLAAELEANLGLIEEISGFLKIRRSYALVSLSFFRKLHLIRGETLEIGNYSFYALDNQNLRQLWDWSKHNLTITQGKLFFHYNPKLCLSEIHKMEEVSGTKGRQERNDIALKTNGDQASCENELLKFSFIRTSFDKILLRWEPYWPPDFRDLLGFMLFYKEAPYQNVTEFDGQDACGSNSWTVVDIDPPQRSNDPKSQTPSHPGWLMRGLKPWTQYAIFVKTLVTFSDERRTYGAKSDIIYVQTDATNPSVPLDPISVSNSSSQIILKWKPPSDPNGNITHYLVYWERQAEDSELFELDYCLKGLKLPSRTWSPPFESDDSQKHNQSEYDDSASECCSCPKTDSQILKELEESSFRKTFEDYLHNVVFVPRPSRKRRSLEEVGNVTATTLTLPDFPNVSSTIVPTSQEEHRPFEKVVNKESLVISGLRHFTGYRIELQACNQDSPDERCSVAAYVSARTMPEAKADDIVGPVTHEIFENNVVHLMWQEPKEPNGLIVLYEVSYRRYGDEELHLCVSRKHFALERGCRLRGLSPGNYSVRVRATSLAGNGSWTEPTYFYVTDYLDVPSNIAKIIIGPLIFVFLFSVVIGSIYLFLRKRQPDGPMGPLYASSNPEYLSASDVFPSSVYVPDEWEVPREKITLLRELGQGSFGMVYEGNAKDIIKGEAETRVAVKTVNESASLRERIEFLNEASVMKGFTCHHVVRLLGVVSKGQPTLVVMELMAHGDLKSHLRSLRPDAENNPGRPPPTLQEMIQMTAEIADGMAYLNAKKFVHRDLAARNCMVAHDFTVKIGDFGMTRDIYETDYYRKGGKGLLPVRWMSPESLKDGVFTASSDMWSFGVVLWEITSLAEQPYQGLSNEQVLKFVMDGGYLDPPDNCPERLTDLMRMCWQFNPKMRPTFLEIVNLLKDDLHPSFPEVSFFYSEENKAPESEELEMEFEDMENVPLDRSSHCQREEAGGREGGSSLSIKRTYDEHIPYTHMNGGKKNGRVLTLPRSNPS

Molecule | EC50 (FFC) [nM] | EC50 (FFC) rel. to HI [%]
Ac-SLEEEWAQIQCEVWGRGCPSESFYDWFERQLG (cysteine pairing not given here) [S671] | 0.1 | 65
HQLEEEWQAIQCELWGRGCPSEDFYDWFEAQLHA [616] | 1.5 | 4
Ac-SLEEEWAQIQCEVWGRGCPSESFYDWFEAQLHA (cysteine pairing not given here) [634] | 0.083 | 66
Ac-SLEEEWAQIECEVYGRGCPSEGFYNAIELLS (cysteine pairing not given here) [637] | 39 | 0.1
Ac-HGLEEEWAQIQCEVWGRGCPSESFYDWFEAQLHA (cysteine pairing not given here) [639] | 0.78 | 5
Ac-SLEEEWAQIQCEVWGRGCQRPEPFYDWFERQL (cysteine pairing not given here) [S642] | 0.14 | 39
Ac-SLEEEWAQIQCELWGRGCPSESFYDWFERQL (cysteine pairing not given here) [643] | 0.097 | 57
SLEEEWAQIEAEVWGRGAPPSESFYDWFERQLGY [649] | 14 | 0.4
Ac-SLEEEWAQIQCEVWGRGCQRPEPFYDWFAEQLDD (cysteine pairing not given here) [655] | 0.63 | 8.7
Ac-SLEEEWAQIQCEVWGRGCPSGGSTFEDYLHNVVFVPRPS (cysteine pairing not given here) [658] | ~1000 | 
HLEEEWSEIQCELWGRGCPSEDFYDWFEAQLHA [617] | 3.9 | 1
Ac-SLEEEWAQIQCEVWGRGCPSEAFYDWFHEQLDD (cysteine pairing not given here) [662] | 2 | 3.3
Ac-SLEEEWAQIECEVYGRGCPSESFYHWFERQL (cysteine pairing not given here) [S665] | 1.9 | 3.4
Ac-SLEEEWAQIQCEVWGRGCPSESFYGWFQAQL (cysteine pairing not given here) [668] | 2.3 | 2.8
GSLDESFYDWFERQLGKKY [670] | 850 | 
Ac-SLEEEWAQIQAEVWGRGAPSESFYDWFERQL [672] | 25 | 0.3
Ac-SLEHEWAQIHCEVYGRGCPSESFYHWFERQL (cysteine pairing not given here) [674] | 230 | 
HELEEEWKRIECELWGRGCPSEDFYDWFEAQLHA [618] | 4.6 | 1

Molecule | EC50 (FFC) [nM] | EC50 (FFC) rel. to HI [%]
SLEEHWAQVECEVYGRGCPSESFYDWFERQL [680] | 16 | 0.4
SLEEEWGQVECEVYGRGCPSESFYDWFERQL [681] | 13 | 0.4
SLEEEWAQVECEVYGRCPSESFYDWFERQL [682] | 7.7 | 0.8
SLEEEWAQVECEVYGRNCPSESFYDWFERQL [683] | 2.1 | 2.9
SLEEEWAQVECEVYQRGCPSESFYDWFERQL [684] | 15 | 0.4
SLEEEWAQHECEVYGRGCPSESFYDWFERQL [688] | 680 | 
SLEEYWAQVECEVYGRGCPSESFYDWFERQL [689] | 15 | 0.4
SLEEVWAQVECEVYGRGCPSESFYDWFERQL [690] | 16 | 0.4
SLEEEWYQVECEVYGRGCPSESFYDWFERQL [691] | 25 | 0.3
SLEEEWAQVECEVYGRHCPSESFYDWFERQL [692] | 7.7 | 0.8
SLEEEWAQVECEVYGRVCPSESFYDWFERQL [693] | 75 | 0.1
Ac-HLEEEWSEIQCELWGRGCPSEDFYDWFEAQLHA (cysteine pairing not given here) [620] | 69 | 1
SLEEEWAQVECEVYGRFCPSESFYDWFERQL [694] | 26 | 0.3
SLEEEWAQVECEVYHRGCPSESFYDWFERQL [695] | 9.8 | 0.6
SLEEHWHQVECEVYGRGCPSESFYDWFERQL [697] | 72 | 0.1
SLEEHWHQVECEVYHRHCPSESFYDWFERQL [698] | 190 | 0.03
Ac-SLEEEWAQVECEVYGRGCPSESFYDWFERQL (cysteine pairing not given here) [699] | 4.3 | 1.5
YEEESFYGWFERQLGEE [732] | > 2000 | 

Reference: patent US20100298213A1, “Pharmaceutically Active Insulin Receptor-Modulating Molecules” (Novo Nordisk A/S, priority 2004, published 2010)
